Experimental data: PMC5584928
Numbering of substitutions follows the chain as printed. Names and notes keep the numbering of the source.

B1: WT IGF2 (insulin-like growth factor-2) R24E; R34E; R37E; R38E (protein)
chain: AYRPSETLCGGELVDTLQFVCGDEGFYFSRPASEVSEESRGIVEECCFRSCDLALLETYCATPAKSE
B2: WT IGF2 (insulin-like growth factor-2) R24E; R37E; R38E (protein)
chain: B1 chain with E34R
B3: WT IGF2 (insulin-like growth factor-2) R30E; R37E; R38E (protein)
chain: B1 chain with E24R, R30E, E34R
B4: WT IGF2 (insulin-like growth factor-2) R34E; R37E; R38E (protein)
chain: B1 chain with E24R

Target: T1, integrin αvβ3 on β3-CHO cells (recombinant hamster αv/human β3 hybrid), P05106
T1 chain: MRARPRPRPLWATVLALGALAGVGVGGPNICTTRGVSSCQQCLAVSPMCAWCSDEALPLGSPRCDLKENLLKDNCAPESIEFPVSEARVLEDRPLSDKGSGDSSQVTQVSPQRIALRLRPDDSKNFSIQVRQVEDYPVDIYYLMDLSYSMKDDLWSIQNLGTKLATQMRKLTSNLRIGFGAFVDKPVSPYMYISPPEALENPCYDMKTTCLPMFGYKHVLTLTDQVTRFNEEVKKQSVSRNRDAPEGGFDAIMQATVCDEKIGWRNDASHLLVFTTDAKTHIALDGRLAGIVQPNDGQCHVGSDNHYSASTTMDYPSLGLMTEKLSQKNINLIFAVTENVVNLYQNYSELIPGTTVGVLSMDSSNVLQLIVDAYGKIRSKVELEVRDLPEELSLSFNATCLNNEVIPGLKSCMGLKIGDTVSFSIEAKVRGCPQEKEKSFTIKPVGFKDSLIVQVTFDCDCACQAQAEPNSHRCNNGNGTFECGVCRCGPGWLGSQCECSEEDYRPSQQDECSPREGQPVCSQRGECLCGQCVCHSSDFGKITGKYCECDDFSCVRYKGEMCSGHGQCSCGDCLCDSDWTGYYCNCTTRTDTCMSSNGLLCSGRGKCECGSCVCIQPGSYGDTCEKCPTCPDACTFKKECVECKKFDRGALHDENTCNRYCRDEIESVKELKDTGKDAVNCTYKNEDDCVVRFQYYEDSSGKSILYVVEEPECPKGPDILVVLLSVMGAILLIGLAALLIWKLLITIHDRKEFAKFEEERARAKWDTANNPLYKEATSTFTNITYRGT
Test: cell adhesion assay (β3-CHO cells on coated IGF2)
Settings: chain shown with the change; 10 µg/ml IGF2; Tyrode-HEPES buffer, 1 mM Mg2+; parent: est. 43; read off a plot
For B1, the response was 15 % Adhesion.
Binder B2 has a response of 16 % Adhesion.
B3 was tested, and the response was 25 % Adhesion.
B4 was tested, and the response was 15 % Adhesion.

Same assay, conditions: chain shown with the change; IGF2 coating 5 µg/ml; Tyrode-HEPES buffer, 1 mM Mg2+; parent: est. 30; read off a plot
B2 showed a response of 9.5 % Adhesion.
B3 gave a response of 20 % Adhesion.
B4 showed a response of 6.5 % Adhesion.

Same assay, conditions: chain shown with the change; IGF2 coating 10 µg/ml; Tyrode-HEPES buffer, 1 mM Mg2+; parent: est. 43; read off a plot
For B2, the response was 16 % Adhesion.
Work on B3 yielded a response of 25 % Adhesion.
B4 gave a response of 16 % Adhesion.

Same assay, conditions: chain shown with the change; IGF2 coating 20 µg/ml; Tyrode-HEPES buffer, 1 mM Mg2+; parent: est. 56; read off a plot
B2 was tested, and the response was 17 % Adhesion.
B3 showed a response of 36 % Adhesion.
With B4 the response was 15 % Adhesion.
